Data taken from the Human Domainome abundance scans (Beltran et al. 2025).

B1: Retinoic acid receptor RXR-alpha, residues 132 to 208; numbered along this chain, P19793 (parent)
chain: KHICAICGDRSSGKHYGVYSCEGCKGFFKRTVRKDLTYTCRDNKDCLIDKRQRNRCQYCRYQKCLAMGMKREAVQEE

Variants of: B1
Test: abundance fitness (aPCA) (normalised: wild type 0, dead -1); higher = more abundant; growth selection in yeast, the domain comes from the species named
Conditions: Homo sapiens

Abundance fitness of substitutions, site by site:
R30: E -0.041; D -0.008; F -0.362; I -0.352; M -0.141; C -0.41; H -0.252; P -0.554; A -0.162; W -0.167; K 0.073; L -0.178; V -0.353; Q -0.129; G -0.087; S -0.158; T -0.124
F27: S 0.004
K44: R -0.019; E -0.033; Y -0.119; A 0.001; L -0.083; S -0.011; D 0.092; P -0.022; N 0.025; C -0.025; T 0.057; I 0.05; F -0.024; G 0.052; Q -0.04; V -0.035; M -0.03; H -0.086
V32: Y -0.079; Q -0.017; H -0.064; P -0.298; N 0.015; I -0.083; E 0.026; G -0.046; S -0.085; T 0.024; W -0.211; R -0.171; K -0.012; F 0; A -0.013
T37: Y -0.082; D 0.082; H 0.053; I -0.016; S -0.025; K 0.066; P 0.064; A 0.026; F -0.046; N 0.001; R -0.039; L -0.05; Q 0.059; C 0.074; M -0.147; E 0.052; V 0.035; W -0.051; G 0.047
R33: F -0.033; P -0.143; A 0.038; E 0.044; K 0.05; T -0.012; S -0.074; W -0.002; C -0.287; M -0.003; D -0.005; Y -0.158; N -0.017; V 0.018; L -0.096; G -0.014; I 0.004
Y38: Q -0.041; E -0.063; S -0.031; D -0.115; R -0.11; C -0.353; T 0.036; P 0.04; W -0.086; A -0.061; F 0.078; N -0.101; I -0.041; H 0.027; L 0.012; V 0.001
G26: C -0.077; R -0.018; M -0.071; Q 0.038; H -0.021; D 0.024; W -0.052; F -0.138; I -0.116; Y -0.081; P -0.503; N -0.123; V 0.007; E -0.043; L -0.132; S -0.087; A 0.002
R41: N -0.05; Q 0.041; L -0.091; D 0.056; M 0.018; F 0.032; E 0.14; T 0.035; C 0.096; G 0.095; V -0.01; W -0.007; P 0.059; Y -0.002; H 0.06; K 0.026; I 0.041
C46: Y -0.383; F -0.291; N -0.22; R -0.301; Q -0.288; S -0.274; D -0.035; P -0.155; E -0.189; K -0.207; M -0.206; G -0.186; I -0.436; A -0.142; L -0.378; V -0.193
D45: I -0.123; N -0.034; M -0.404; V -0.021; P -0.078; L -0.062; F -0.104; H -0.066; C -0.049; W -0.025; E 0.043; Y -0.062; S -0.029; K 0.058
